Results: patent US11433139B2, “Peptide vaccines against interleukin-31” (Zoetis Services LLC, priority 2018, dated 2022)

Columns and labels:
feline IL-31 [1] = assay: Affinity of anti-IL-31 antibodies by surface plasmon resonance (Biacore), feline IL-31 surface; type: binding; settings: IL-31 conjugated to the surface (FIG. 2)
How it was run: (§1)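 IL-31 amine-coupled (NHS/EDC) at 5 μg/mL directly onto the SPR chip, quenched with ethanolamine; candidate mAbs flowed over as analyte. KD from 1:1 model fits; values below 1×10^−11 M are under the instrument's lower quantitation limit.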
Target sequence in this assay (as listed by the source): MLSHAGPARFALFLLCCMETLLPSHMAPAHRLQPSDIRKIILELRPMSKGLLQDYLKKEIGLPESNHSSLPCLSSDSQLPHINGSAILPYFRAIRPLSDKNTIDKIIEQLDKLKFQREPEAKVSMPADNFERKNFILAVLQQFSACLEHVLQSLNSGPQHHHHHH

feline IL-31 [2] = assay: Inhibition of feline IL-31 induced pSTAT3 signaling in feline FCWF4 macrophage-like cells; type: cell-based; settings: 0.2 μg/mL feline IL-31, pSTAT3, FCWF4 cells (FIG. 3)
How it was run: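 DH-82 cells primed with canine IFN-γ 10 ng/mL for 24 h, FCWF4 with feline IFN-γ 125 ng/mL for 96 h, then serum-starved 2 h. mAb pre-incubated 1 h with 1 μg/mL canine or 0.2 μg/mL feline IL-31, cells stimulated 5 min; pSTAT3 by AlphaLISA SureFire, IC50 as half-maximal signalling reduction.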

feline IL-31 [3] = assay: Competition binding assessment using Biacore, feline IL-31 surface; settings: sequential addition of 15H05 and 11E12, Biacore
Description: To further characterize the IL-31 epitopes bound by mAbs 15H05 and 11 E12, blocking experiments were performed using biacore where the surface containing the IL-31 protein was generated followed by sequential addition of antibodies. FIGS. 7A and 7B show the relative binding of each antibody to IL-31 following capture of 11E12 or 15H05. The columns labeled HBS-EP (assay buffer) indicate the maximum signal obtained from each antibody binding to the IL-31 surface alone without competition. […] The sensograms related to FIG. 7A show the disassociation kinetics of both antibodies are very slow on this newly formed biacore surface therefore no additional occupation of binding sites can occur with addition of the same antibody (data not shown).
Binding of additional antibody in the presence of the same antibody is a result of the increased off rate due to the poorer quality of the surface used. Increased off rates can be seen and compared to the KD values from newly formed feline IL-31 surfaces in FIG. 2.

canine IL-31 = assay: Affinity of anti-IL-31 antibodies by surface plasmon resonance (Biacore), canine IL-31 surface; type: binding; settings: IL-31 conjugated to the surface (FIG. 2)
canine IL-31, sequence (as listed by the source): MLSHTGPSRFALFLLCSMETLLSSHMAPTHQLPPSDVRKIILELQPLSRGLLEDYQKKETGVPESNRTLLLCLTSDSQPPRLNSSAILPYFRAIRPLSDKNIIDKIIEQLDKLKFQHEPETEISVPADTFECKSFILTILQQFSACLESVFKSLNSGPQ
How it was run: as §1

equine IL-31 = assay: Biacore binding, single test concentration of antibody, equine IL-31 surface
equine IL-31, sequence (as listed by the source): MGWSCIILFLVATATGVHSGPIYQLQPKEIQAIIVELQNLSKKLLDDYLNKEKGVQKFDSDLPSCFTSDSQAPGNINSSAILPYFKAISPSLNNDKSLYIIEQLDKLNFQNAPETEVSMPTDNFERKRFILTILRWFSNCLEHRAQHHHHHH
Description: For the indirect ELISA, binding (ELISA OD) to wildtype feline IL-31 and a feline IL-31 15H05 mutant which had mutations in the monoclonal antibody 15H05 epitope region was assessed. To confirm binding, biacore analysis was performed using canine, feline, equine, human, the feline 15H05 mutant, and feline 11E12 mutant IL-31 proteins as surfaces and a single test concentration of antibody. The feline IL-31 11E12 mutant had mutations in the monoclonal antibody 11E12 epitope region.
For the indirect ELISA method, antibody binding to wildtype and feline IL-31 15H05 mutant proteins was assessed. […] In comparison, the 11E12 antibody bound to the wild-type feline IL-31 and its binding was not impacted by the mutations in the 15H05 epitope region as evidenced by the data in FIG. 4. To confirm binding, biacore analysis was performed using canine, feline, equine, human, feline 15H05 mutant, and feline 11E12 mutant IL-31 proteins as surfaces and a single test concentration of antibody. Similar to ELISA observations, all antibodies tested bound to wildtype feline IL-31. In agreement with the data described above in this section, mouse antibodies 11 E12 and 15H05 both bound to canine and feline IL-31 surfaces. […] From this group of nine fully canine antibodies, only ZIL1 and ZIL9 cross-reacted with equine IL-31. Of note, antibody 15H05 was the only one of all assayed herein that bound to canine, feline, and equine IL-31 indicating some level of epitope conservation across the three species. In contrast, none of the antibodies described herein bound to human IL-31. Additional biacore surfaces were used to verify ELISA observations showing differential binding of antibodies to wildtype feline IL-31 and two proteins with mutations in the 15H05 (15H05 mutant) or 11 E12 (11E12 mutant) epitopes. […] Differing results can be attributed to differences in the two assay methodologies.

B1: 15H05: mouse anti IL-31 monoclonal antibody, VH SEQ ID NO: 67, VL SEQ ID NO: 69 (antibody, listed as Mus musculus, V domains shown)
VH: QVQLQQSAAELARPGASVKMSCKTSGYTFTSYTIHWIKQRPGQGLEWIGNINPTSGYTENNQRFKDKTTLTVDRSSNTAYLQLHSLTSEDSAVYFCARWGFKYDGEWSFDVWGAGTTVTVSS
VL: DIQMNQSPSSLSASLGDTITVTCRASQGISIWLSWYQQKPGNIPKVLINKASNLHIGVPPRFSGSGSGTHFTLTITSLQPEDIATYYCLQSQTYPLTFGGGTKLEIN
With B1 the “affinity (KD) to feline IL-31” value (feline IL-31 [1]; listed as Mu-15H05) was “sub-nanomolar”, the “affinity (KD) to feline IL-31” value (feline IL-31 [1]; listed as mAb 15H05) was “high” and the “potency (IC50) against feline IL-31 in feline FCWF4 cells” value (feline IL-31 [2]) was “slight increase in IC50”. For the same molecule, the “competition binding on feline IL-31” value (feline IL-31 [3]) was “no overlap in the epitope recognized”, the “affinity (KD) to canine IL-31” value (canine IL-31; listed as Mu-15H05) was “sub-nanomolar” and the “affinity (KD) to canine IL-31” value (canine IL-31; listed as mAb 15H05) was “high”. The “binding to equine IL-31 (Biacore)” value (equine IL-31) was “bound”.
